{"source": "paper PMC6712033", "about": "“Proteasome subunit α1 overexpression preferentially drives canonical proteasome biogenesis and enhances stress tolerance in yeast” (Scientific Reports, 2019)", "molecular_target": "T1, proteasome subunit α2-K160C (S. cerevisiae, UniProt P23639 1-250, K160C)", "T1 construct": "20S proteasome core particle subunit α2, S. cerevisiae, with an engineered cysteine at the α2-α3 interface; Detected with an anti-His antibody (TetraHis); also called His (α2); source: S. cerevisiae (WT or pba3Δ), in cell extract", "T1 sequence (looked up)": "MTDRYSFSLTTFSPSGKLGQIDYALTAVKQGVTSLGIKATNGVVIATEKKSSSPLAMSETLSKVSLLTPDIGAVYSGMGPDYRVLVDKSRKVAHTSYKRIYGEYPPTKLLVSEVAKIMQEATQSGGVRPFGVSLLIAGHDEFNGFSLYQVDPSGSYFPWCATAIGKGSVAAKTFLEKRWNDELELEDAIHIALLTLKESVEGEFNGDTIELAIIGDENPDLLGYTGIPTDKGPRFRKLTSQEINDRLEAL", "assay": "cross-linking; engineered disulfide crosslinking in yeast extracts (WT or pba3Δ, empty vector or α1 overexpressed); 250 µM CuCl2, 25 °C, 10 minutes; 50 mM HEPES pH 7.5, 150 mM NaCl, 5 mM MgCl2, 2 mM ATP; non-reducing SDS-PAGE, anti-His immunoblot; reversed by DTT", "conditions": "partners not purified"}
{"binder": "proteasome subunit α3-L56C (natural protein, S. cerevisiae, UniProt P23638 1-258, looked up, 20S proteasome core particle subunit α3, S. cerevisiae, with an engineered cysteine at the α2-α3 interface; source: S. cerevisiae (WT or pba3Δ), in cell extract) MGSRRYDSRTTIFSPEGRLYQVEYALESISHAGTAIGIMASDGIVLAAERKVTSTCLEQDTSTEKLYKLNDKIAVAVAGLTADAEILINTARIHAQNYLKTYNEDIPVEILVRRLSDIKQGYTQHGGLRPFGVSFIYAGYDDRYGYQLYTSNPSGNYTGWKAISVGANTSAAQTLLQMDYKDDMKVDDAIELALKTLSKTTDSSALTYDRLEFATIRKGANDGEVYQKIFKPQEIKDILVKTGITKKDEDEEADEDMK", "values": [{"measurement": "fold increase in crosslinking (α1 overexpressed against empty vector, pba3Δ cells)", "result": 1.76, "unit": "fold"}]}
